From PMC4811778 (eLife, 2016) come the findings set out here.

For this assay, the target named is T1, ElaB (E. coli, UniProt P0AEH5 1-101).
T1 construct: ElaB, E. coli, paralogue of YqjD, inner membrane-associated; source: endogenous, E. coli (MG1665) lysate, log phase and stationary phase
T1 sequence (looked up): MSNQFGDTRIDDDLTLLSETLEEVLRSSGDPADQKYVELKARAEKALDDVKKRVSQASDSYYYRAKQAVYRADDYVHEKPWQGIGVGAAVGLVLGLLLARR
Kind of assay: cross-linking; quantitative CXMS: log phase and stationary phase E. coli (MG1665) lysates (100 µg each, 50 mM HEPES pH 8.0, 150 mM NaCl) cross-linked with [d0]-/[d6]-bAL2 at RT for 1 hr, forward and reverse labelling; pLink, pQuant. Particulars: partners not purified.

B1: YqjD (natural protein, E. coli, UniProt P64581 1-101, looked up)
chain: MSKEHTTEHLRAELKSLSDTLEEVLSSSGEKSKEELSKIRSKAEQALKQSRYRLGETGDAIAKQTRVAAARADEYVRENPWTGVGIGAAIGVVLGVLLSRR
notes: source: endogenous, E. coli (MG1665) lysate, log phase and stationary phase
Take B1: the “fold increase of the cross-link in the stationary phase over the log phase” value was no less than 10 fold.
